This assay addresses T1, GST fused with the ARF6-binding domain (LZII, leucine zipper II domain) of human JIP3 (aa 371-507) (human, UniProt Q9UPT6 371-507).
T1 construct: JIP3, human, residues 371-507 (LZII, leucine zipper II domain); also called GST-LZII; LZII domain of human JIP3; source: pGEX construct, purified as described [35]; not shown: GST, N-terminal, kept
T1 sequence (looked up): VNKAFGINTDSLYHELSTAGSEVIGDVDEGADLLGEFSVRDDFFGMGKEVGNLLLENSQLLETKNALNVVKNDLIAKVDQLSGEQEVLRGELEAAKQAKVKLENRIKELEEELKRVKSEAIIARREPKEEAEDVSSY
Description: pull-down; GST-LZII (37 ug/reaction) incubated with cleared MDA-MB-231 cell lysates for 15 min at 4°C with 0.5% BSA, then glutathione-Sepharose beads for 1 h at 4°C; lysis buffer 50 mM Tris pH 7.4, 137 mM NaCl, 10 mM MgCl2, 10% glycerol, 1% Triton-X100; bound proteins immunoblotted with anti-ARF6 monoclonal antibody. The following applies: one partner purified.

B1: ARF6T157N (natural protein, UniProt P62330 1-175, looked up)
chain: MGKVLSKIFGNKEMRILMLGLDAAGKTTILYKLKLGQSVTTIPTVGFNVETVTYKNVKFNVWDVGGQDKIRPLWRHYYTGTQGLIFVVDCADRDRIDEARQELHRIINDREMRDAIILIFANKQDLPDAMKPHEIQEKLGLTRIRDRNWYVQPSCANSGDGLYEGLTWLTSNYKS
notes: ADP-ribosylation factor 6 (ARF6), fast-cycling mutant T157N; also called fast-cycling mutant of ARF6; ARF6T15TN
In the case of B1, the “fold increase in GTP-ARF6 pulled down, against parental MDA-MB-231 cells” value was roughly 4 fold.

Source of the values: article PMC4370635, “ARF6 Promotes the Formation of Rac1 and WAVE-Dependent Ventral F-Actin Rosettes in Breast Cancer Cells in Response to Epidermal Growth Factor” (PLoS ONE, 2015).
